Assay: protease stability score; higher = more stable; yeast display proteolysis, trypsin and chymotrypsin;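 also: log10 excess protease needed over predicted unfolded state with 0 meaning unfolded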
“DEDKQHEFATRNVKAWETNDENQMRRLMDPNAKVRIGDKEYRGREEILRLLNEFKKRVDHVQVKSYDVHNGHVHINIVASVNGQRHEMHVKFQFHNGEIVKMQIDDS” gave a protease stability score of 0.203.
“DSEAAKRAETFIRNLVQGNEDELRDMADKDVNFQVGDKTVHGREQWQEEVSRTEKEARVEMRVDDYRDEPGTVKLNAKVTIEYNGQPFTVNLHVEIHFKNGKMQRAVFEIDPEVQKEVES” showed a protease stability score of 0.692.
“DEHFETVARLMLHALEDNNPEVLRENLDPNARVQVGDQDLTGRDTVVKVAHRLLTEIRIHIQIDSVRNQGDTVEFDAKFRANVNGRPYSVKVVIVYVVRNGRAVHIQVRMDPDFLRKLRK” showed a protease stability score of 0.938.
For “DEEAYRLFSEMEKARKDNDEEKLRELADEDVRFEVGDSVIKGMTRWATRVVQTAREQRFSYDIKRWHIEGDKVVVHREVRESHNGQPRSRTVVYRAHVDNGRVKSVTVEDTG”, the protease stability score was 0.158.
For “EEEMVKHIKRVLENNDEERRAQLADKDAHARVGDRHVHGREELEKIVHHIKRRVDHLEVKDVKADGNTIEADVVMQVDGRTMQYNLTIILHNGTIKSVTIKVRNEEQKKLMEELFG”, the protease stability score was 0.317.
“DENAQKLAREFMHAVREGNPEEIKKQVDPNAKMVVGDKEITGREEMSRQRERELREIEIDYRSVRVDVSGDKAKLDIKFERNDNGKPQQQQQTMTFVHQGDKIKHLVIKQHS” showed a protease stability score of -0.373.
With “DEEAVNLINRLLEARKYNDPDSMKRLADENAQFVIGDKEVKGMETYARHVVQTMSRWRIDIKSVHHQSRGSKAEVDVRAKVNVNGRPDTLSITYRAHVTNGRIKELEVRFDPDQHRKLTS” the protease stability score was 0.019.
Work on “DHEVHKLFDDFLHAEETGNEEQLTELVDENAQIQVGDKEVHGRDHINKMHADLRRTMDLKLKDYKVNNNGNNVDVDMKYINEDNGKPSKVRMRAIYTFQNGRIKNVHQNRDQ” yielded a protease stability score of -0.366.
“DEEAETVLKRWLTALRENDPQQAADLADPHAQFQIGEKTIRGREDLKRFMDEMLHHLRVDFTIDHVKVTGETVVVHFTVEFNVNGRPLRFEVVLVVKAENGKVKQLEQHMDDDQWRQVKS” gave a protease stability score of 0.358.
Work on “DDREVVDRALKELRSILHEGDEEQMHRNFPPEASVKYGDTEYTGMESAAHLIIELRKRVDHMEQRVTTVNVRNGTVDVDMSADVRHNGREDSIKVKLILRISNGRAQLEQVINP” yielded a protease stability score of 1.18.
With “DEEKNKKIARSLFQVFRTGDENRAQDMADENATARVGDKSVHGKEEFRKFVQEFLRQVDHMDVQEYRVRGNRINIIAVIHHNGQRLKVVITIVLHNGRIVHMVIRYTNPSQWKRVMS” the protease stability score was 0.597.
In the case of “DDKQAKELVKLMHTGDWETLINNMDPNARVVIGNKTYHGRHDAQKLLELWQKRVDHQDIHDVKARGDQLQVNMVFVINGVKFELVITVKFHNGRIESVQYDVTDRDQERKLEDLMS”, the protease stability score is reported as 1.67.
Sequence “DEEAQKKVEEWERAIEHGNEQQARELADKDVRIEVGDQRVRGMEDIARTQVRKQREITRHVRRFDAHATGDKIRVELVFEVHHDGQPRHQKYELRMVMHNGRVHSVRVETRR” has a protease stability score of 0.412.
“DERNIERARKWWEALQENNPDQARKLMDKDVTFTYGDKTYHGREDIAKDIHRRLENMRVEIKSMTLEDHNGRVDAQVDLVVDVNGQPRQVTLDAKVNVENGRVKEFNVQFDEQLRHDIQK” showed a protease stability score of 0.132.
Work on “DEDDVRRVHEMIRAEETNNEHQVKDLMDENARMVVGDQEITGMDHILKFIRETNKEIDIELRLRDVKVSNGNVHVTARVRFTVNGKPVDRSAKMEVQVENGRIQDVQKRFPTEWKRERHK” yielded a protease stability score of -0.03.
Sequence “DNEDAQQAIQMLKAELDGDEERAAQLMDPNARFNIGDKEIHGRETFQHWLREVKKHMHVKIDRLEIDVEGDKVDVRMEFVQNHNGKPHRAEATVEVRAENGHVKEVTVDVKG” has a protease stability score of 0.551.
In the case of “DEHIAKDLHRLAETGNWQELVEQADKDAKAKVGDKTYHGREDLQTLNRQWNEHVDHENLERVTLNPDHLVILFKMQVNGKDFAANVRIRRHNGRVEHIQVDARDDEQKKILHELLS”, the protease stability score is reported as 0.657.
“DEHVQQALERYWDAVTTNNPEQAVNNVDPNVEIVVGDKTLTGREDVHKHIKDVKDKQNVEIKSMQLRVHNGRVRARFKFEVNHNGEPTTDVVVVEAEVKNGKIQRVEARRDK” gave a protease stability score of 0.899.
“DEKQLVEVIREVIKALQQGHRDKVKKLGGPNVEVQAADYRNKGPEAILHMAEIVQRIGDEFQYRRTEQKGGTVTTTVEVHVGGHTVRYEVNAEAEGGKLKYWQADDDDKFIQHVKES” showed a protease stability score of 0.725.
For “EDEVLKELLEAVRHNDPDKIKELIDPNARFRVGDKSLHGMEEAAEQYARMMKRVDHIQIDSMSAHGDTFTVDQRFHFDGRTLSVTIRIRIHNGRIEELVIEVRSEEDKKNLDNLLS”, the protease stability score was -0.097.
“DEQKIKELLYKAAEAYINGNDELVRKLLKDDGKLEAGDYEYRGVDQVVKVAQDFKKYGVELEIKNYKYDGDRLDVEVELHLGGTTWKFTVTVQADGGKVDKVQFHFSEEARKRIQDG” gave a protease stability score of 0.447.
With “DEERKKRVEEALRQEQQGNEEDYSELMDENVKITIGDKTIRGSKEAVRHFKEKMTQMRIELRDYRIQVHGNKVSVDLKYVNDHDGQPRHQKATATMDMTNGRVQSREVDNKP” the protease stability score was 0.186.
Sequence “DEKKQQELAETFWKIFKTGDEEKLKQMMPQDVRARYGDKSVTGRDRIVTTIKKRVKRADHINVKHISVHNGKIHIDAVIVVDGRKQRDTINIKMRNGHIKNINVDPEKDKQNFS” has a protease stability score of -0.217.
In the case of “DEEHDEKVARSVARNITHGNEKSLRKQLPEDARVVYGDKTYHGRERAANVAKEFDERADHNRVDDLRVQNGRAELIFIVNVDGKNVRAVMIVDVHNGKAKLVMIKWTNPDDQRDLEK”, the protease stability score is reported as 0.159.
“DEEEVKKFKEFLDDEKKGNEERAKKLADPNVNVRVGNRQVDGSDNLQKEIRTQKEQARFDMKVDHVEAHNGRIHLEFKLTVEVDGRPKSDTATADAVVTNGHITSLTVQMSEDQVREMDK” gave a protease stability score of -0.238.
“DREDNEQVKKILETNDFHRLAEQADKDAKAVVGEKRYHGREHVREALLRLQKQADHLEIDSMDTSGDKVVMRAKLKINGKTMDVTFDVVVHNGRLQHFEMSATTEDDERIQRTANS” gave a protease stability score of 0.743.
In the case of “DDQHQQKFAEEFNKNLEKGDFHRIAQMADENVRVRYGDKSVNGREHMSQFMKELRDRVDHMEIKDFHASNGKITITFVVNVNGKNITLHISIRVSNGRIHEVSLDPDQLKSLES”, the protease stability score is reported as 2.
“DDRDAKHFKEIMKHGNFEEMVRQADPNVTITIGDREVHGRHQAQKFVDTLNDRIDHYQVDEIDVKGEKITAEVAMVVNGVRVDFVIVMHFENGRIKSVRIEATNEHAHENFRRIHS” showed a protease stability score of 0.561.
Work on “DEEEQEKQAHDFARVFNTGDEEKFKRLMPPDARFRYGDKEYHGMDDLLRMLLEMHKRADHLTLVDVDAHGNHLTIRIKVTVNGSDVTVDITITVDNGRLKSVVVDPRQWQKLRN” yielded a protease stability score of 0.066.
With “DEEEHAKEFVKRLDKVNKKNDEESFEDLADENATFRYGDKTYRGREDMRKLVQDLRKRADHADVKLTRLELHNGQVRAEIDMRFRHDGRTHKDVFDAQLKVTNGTVKLTNLNQS” the protease stability score was -0.059.
Sequence “DEEALNLFHRMINAIQENDPDTLHRLVDPNARIQIGDHDIHGMKTYVREVEKTLRSMRIKFDIKSVDVTGDKVVIDEKVDFDINGKPVHNKVEMRIKAHNGTVKHLDWKVPEDELKKIEE” has a protease stability score of -0.232.
Work on “EEELRHTAHELQKAYEENDPEKILENLDPNAQVQIGDRRVHGRHEIRKLMEHFERQARVRVHDVKVDVHGNKINIQVDAEQNHNGEPRSFTVQAEMTMHNGRVKSIDMKIQG” yielded a protease stability score of 0.612.
With “EEHMEDSFRKWKDNLRTNDEKSLEKMADPNATFDVGDKRFRGMHKYVHDLVNTLRSMRVDIKINSIDVQGDKIKARAQATVYHNGRPQRYTFSFEIKINNGHIQRLVRKDDQ” the protease stability score was -0.035.
“DDDEMRKLLTRLADNYKHNDPNKLAEQMDPDVEIEIGDKTYHGRENVMKHWKEQHERVDHVNIQHLDAQGENLVMTFNVTVNGKHVTVRIIFNVKNGRIKSVIVDPDDIKKLEG” gave a protease stability score of 1.48.
Work on “DEEEAKKFMETWQKAVEKGDTKTARELYDPNVEWIDYSQRHQGVEMVVKQMQQVKKKGVEFQIRKAKVEGNEVEVVYDANIGNETATFTVQFRAEGGRVKEVRVKMDEKAKKIKREG” yielded a protease stability score of 0.064.
In the case of “DEQLNKHFVRLMQNNDFEELVRNADKDVRVRIGNKEYQGREEANTALKTFHKQVDKLTIRSYDYHNGSAKIDLEVRFNGQKFRFVVTARLHNGKMKSMRINFTNPEDQKQLDRDMS”, the protease stability score is reported as 1.41.

Source: the NTF2 design screens of Basanta et al. (2020)
